B1: Cilia- and flagella-associated protein 418 (Homo sapiens), Q96NL8 (parent)
chain: MAEDLDELLDEVESKFCTPDLLRRGMVEQPKGCGGGTHSSDRNQAKAKETLRSTETFKKEDDLDSLINEILEEPNLDKKPSKLKSKSSGNTSVRASIEGLGKSCSPVYLGGSSIPCGIGTNISWRACDHLRCIACDFLVVSYDDYMWDKSCDYLFFRNNMPEFHKLKAKLIKKKGTRAYACQCSWRTIEEVTDLQTDHQLRWVCGKH
partner: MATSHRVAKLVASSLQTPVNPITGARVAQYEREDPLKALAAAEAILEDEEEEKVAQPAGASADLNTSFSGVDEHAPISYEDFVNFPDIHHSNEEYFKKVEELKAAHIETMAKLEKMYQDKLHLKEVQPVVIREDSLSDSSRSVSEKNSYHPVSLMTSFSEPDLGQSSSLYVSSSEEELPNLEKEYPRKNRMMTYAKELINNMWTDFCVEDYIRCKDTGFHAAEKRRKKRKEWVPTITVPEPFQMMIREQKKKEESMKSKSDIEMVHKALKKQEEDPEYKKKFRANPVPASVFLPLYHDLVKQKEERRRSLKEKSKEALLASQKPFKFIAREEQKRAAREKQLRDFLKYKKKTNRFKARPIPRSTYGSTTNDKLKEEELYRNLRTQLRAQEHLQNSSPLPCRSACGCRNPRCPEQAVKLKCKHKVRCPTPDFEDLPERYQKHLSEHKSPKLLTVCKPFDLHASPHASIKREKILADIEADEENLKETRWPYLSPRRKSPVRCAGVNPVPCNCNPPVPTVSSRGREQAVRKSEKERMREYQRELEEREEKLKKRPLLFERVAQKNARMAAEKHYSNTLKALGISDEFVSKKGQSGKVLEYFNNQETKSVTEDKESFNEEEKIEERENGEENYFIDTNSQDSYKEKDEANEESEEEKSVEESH

This assay covers variants of B1. The conditions noted are these: with FAM161A.
As for MAEDLDELLDEVESKFCTPDLLRRGMVEQPKGCGGGTHSSDRNQAKAKETLRSTETFKKEDDLDSLINEILEEPNLDKKPSKLKSKSSGNTSVRASIEGLGKSCSPVYLGGSSIPCGIGTNISWRACDHLRCIACDFLVVSYDDYMWDKSCDYLFFRNNMPEFHKLKAKLIKKKGTRAYACRCSWRTIEEVTDLQTDHQLRWVCGKH [Q182R], the “effect of a mutation on the interaction” value is listed as “with no effect”.
The entry for MAEDLDELLDEVESKFCTPDLLRRGMVEQPKGCGGGTHSSDRNQAKAKETLRSTETFKKEDDLDSLINEILEEPNLDKKPSKLKSKSSGNTSVRASIEGLGKSCSPVYLGGSSIPCGIGTNISWRACDHLRCIACDFLVVSYDDYMWDKSCDYLFFRNNMPEFHKLKAKLIKKKGTWAYACQCSWRTIEEVTDLQTDHQLRWVCGKH [R177W] is “with no effect”.

Values taken from IntAct's records for PubMed 36233334.
